Assay results from paper doi:10.1101/2024.02.19.580982 (bioRxiv, 2024).
Blank lines part the entries; values can stand above or below the binder they belong to.

Biological target: α-Synuclein preformed fibrils (α-Syn PFF) (mouse, UniProt O55042 1-140)
Test: ELISA

Kd: 0.42 µM
B1: ΔNBD hNOD2-Fc (Fc fusion)
chain: MGEEGGSASHDEEERASVLLGHSPGCEMCSQEAFQAQRSQLVELLVSGSLEGFESVLDWLLSWEVLSWEDYEGFHLLGQPLSHLARRLLDTVWNKGTWACQKLIAAAQEAQADSQSPKLHGCWDPHSLHPARDLQSHRPAIVRRLHSHVENMLDLAWERGFVSQYECDEIRLPIFTPSQRARRLLDLATVKANGLAAFLLQHVQELPVPLALPLEAATCKKYMAKLRTTVSAQSRFLSTYDGAETLCLEDIYTENVLEVWADVGMAGPPQKSPATLGLEELFSTPGHLNDDAADVPPALLRHLFNCGRPGNSPMARLLPTMCIQASEGKDSSVAALLQKAEPHNLQITAAFLAGLLSREHWGLLAECQTSEKALLRRQACARWCLARSLRKHFHSIPPAAPGEAKSVHAMPGFIWLIRSLYEMQEERLARKAARGLNVGHLKLTFCSVGPTECAALAFVLQHLRRPVALQLDYNSVGDIGVEQLLPCLGVCKALYLRDNNISDRGICKLIECALHCEQLQKLALFNNKLTDGCAHSMAKLLACRQNFLALRLGNNYITAAGAQVLAEGLRGNTSLQFLGFWGNRVGDEGAQALAEALGDHQSLRWLSLVGNNIGSVGAQALALMLAKNVMLEELCLEENHLQDEGVCSLAEGLKKNSSLKILKLSNNCITYLGAEALLQALERNDTILEVWLRGNTFSLEEVDKLGCRDTRLLL

Kd: 16.4 µM
B2: ΔCARD hNOD2-Fc (Fc fusion)
chain: CKKYMAKLRTTVSAQSRFLSTYDGAETLCLEDIYTENVLEVWADVGMAGPPQKSPATLGLEELFSTPGHLNDDADTVLVVGEAGSGKSTLLQRLHLLWAAGQDFQEFLFVFPFSCRQLQCMAKPLSVRTLLFEHCCWPDVGQEDIFQLLLDHPDRVLLTFDGFDEFKFRFTDRERHCSPTDPTSVQTLLFNLLQGNLLKNARKVVTSRPAAVSAFLRKYIRTEFNLKGFSEQGIELYLRKRHHEPGVADRLIRLLQETSALHGLCHLPVFSWMVSKCHQELLLQEGGSPKTTTDMYLLILQHFLLHATPPDSASQGLGPSLLRGRLPTLLHLGRLALWGLGMCCYVFSAQQLQAAQVSPDDISLGFLVRAKGVVPGSTAPLEFLHITFQCFFAAFYLALSADVPPALLRHLFNCGRPGNSPMARLLPTMCIQASEGKDSSVAALLQKAEPHNLQITAAFLAGLLSREHWGLLAECQTSEKALLRRQACARWCLARSLRKHFHSIPPAAPGEAKSVHAMPGFIWLIRSLYEMQEERLARKAARGLNVGHLKLTFCSVGPTECAALAFVLQHLRRPVALQLDYNSVGDIGVEQLLPCLGVCKALYLRDNNISDRGICKLIECALHCEQLQKLALFNNKLTDGCAHSMAKLLACRQNFLALRLGNNYITAAGAQVLAEGLRGNTSLQFLGFWGNRVGDEGAQALAEALGDHQSLRWLSLVGNNIGSVGAQALALMLAKNVMLEELCLEENHLQDEGVCSLAEGLKKNSSLKILKLSNNCITYLGAEALLQALERNDTILEVWLRGNTFSLEEVDKLGCRDTRLLL
